In experiment [1] the target is SARS-CoV live virus spike (SARS-CoV) (UniProt P59594). The experiment is described as follows: cell-based or functional assay.
In experiment [2] the target is bat CoV WIV-1 live virus spike (bat coronavirus WIV-1). Kind of experiment: cell-based or functional assay.
Experiment [3] has as its target bat CoV RsSHC014 live virus spike (bat coronavirus RsSHC014). The experiment is described as follows: cell-based or functional assay.
The target of experiment [4] is SARS-CoV-2 Spike-2P stabilized S ectodomain trimer (SARS-CoV-2) (UniProt P0DTC2). The experiment is described as follows: SPR.
The target in experiment [5] is SARS-CoV-2 spike-HexaPro. Kind of experiment: SPR.
Experiment [6] deals with rhFcγRIIIA/CD16a (human) (UniProt P08637). The experiment is described as follows: SPR, DH1042 captured on CM5, receptor titrated.
The target of experiment [7] is rhFcγRI/CD64 (human) (UniProt P12314). Kind of experiment: SPR, DH1042 captured on CM5, receptor titrated.
The target of experiment [8] is Jo 1 (human) (UniProt P12081). Kind of experiment: AtheNA Luminex, mAb at 25 (mg/mL [sic]); <100 negative.
In experiment [9] the target is Sm, small nuclear riboproteins (human). Described as above.
In experiment [10] the target is Scl 70, scleroderma 70 (human) (UniProt P11387). The experiment is described as above.
Experiment [11] deals with SSA, Sjogren's syndrome antigen A (human). The description is as above.
Experiment [12] deals with SSB, Sjogren's syndrome antigen B (human) (UniProt P05455). The description is as above.
In experiment [13] the target is RNP, ribonucleoprotein (human) (UniProt Q96LT9). The experiment is described as above.
Experiment [14] has as its target Cent B, centromere B (human) (UniProt P07199). The description is as above.
Experiment [15] deals with Histone (human). The experiment is described as above.
In experiment [16] the target is Jo 1 (human) (UniProt P12081). The experiment is described as follows: AtheNA Luminex, mAb at 12.5 (mg/mL [sic]); <100 negative.
Experiment [17] has as its target Sm, small nuclear riboproteins (human). The experiment is described as above.
The target in experiment [18] is Scl 70, scleroderma 70 (human) (UniProt P11387). The description is as above.
Experiment [19] has as its target SSA, Sjogren's syndrome antigen A (human). Described as above.
In experiment [20] the target is SSB, Sjogren's syndrome antigen B (human) (UniProt P05455). The description is as above.
For experiment [21], the target named is RNP, ribonucleoprotein (human) (UniProt Q96LT9). The experiment is described as above.
Experiment [22] addresses Cent B, centromere B (human) (UniProt P07199). Described as above.
In experiment [23] the target is Histone (human). Described as above.
In experiment [24] the target is Jo 1 (human) (UniProt P12081). Kind of experiment: AtheNA Luminex, mAb at 6.25 (mg/mL [sic]); <100 negative.
Experiment [25] deals with Sm, small nuclear riboproteins (human). The experiment is described as above.
Experiment [26] has as its target Scl 70, scleroderma 70 (human) (UniProt P11387). The description is as above.
The target in experiment [27] is SSA, Sjogren's syndrome antigen A (human). Described as above.
In experiment [28] the target is SSB, Sjogren's syndrome antigen B (human) (UniProt P05455). The experiment is described as above.
Experiment [29] deals with RNP, ribonucleoprotein (human) (UniProt Q96LT9). The description is as above.
Experiment [30] addresses Cent B, centromere B (human) (UniProt P07199). The description is as above.
The target of experiment [31] is Histone (human). Described as above.
Experiment [32] concerns the target Jo 1 (human) (UniProt P12081). The experiment is described as follows: AtheNA Luminex, mAb at 50 (mg/mL [sic]); <100 negative.
Experiment [33] addresses Sm, small nuclear riboproteins (human). Described as above.
In experiment [34] the target is Scl 70, scleroderma 70 (human) (UniProt P11387). The experiment is described as above.
Experiment [35] addresses SSA, Sjogren's syndrome antigen A (human). The description is as above.
The target of experiment [36] is SSB, Sjogren's syndrome antigen B (human) (UniProt P05455). Described as above.
The target of experiment [37] is RNP, ribonucleoprotein (human) (UniProt Q96LT9). The experiment is described as above.
Experiment [38] has as its target Cent B, centromere B (human) (UniProt P07199). Described as above.
In experiment [39] the target is Histone (human). Described as above.

pKd: −log10 of the molar value.

Sequence of UniProt Q96LT9 (Q96LT9 whole entry): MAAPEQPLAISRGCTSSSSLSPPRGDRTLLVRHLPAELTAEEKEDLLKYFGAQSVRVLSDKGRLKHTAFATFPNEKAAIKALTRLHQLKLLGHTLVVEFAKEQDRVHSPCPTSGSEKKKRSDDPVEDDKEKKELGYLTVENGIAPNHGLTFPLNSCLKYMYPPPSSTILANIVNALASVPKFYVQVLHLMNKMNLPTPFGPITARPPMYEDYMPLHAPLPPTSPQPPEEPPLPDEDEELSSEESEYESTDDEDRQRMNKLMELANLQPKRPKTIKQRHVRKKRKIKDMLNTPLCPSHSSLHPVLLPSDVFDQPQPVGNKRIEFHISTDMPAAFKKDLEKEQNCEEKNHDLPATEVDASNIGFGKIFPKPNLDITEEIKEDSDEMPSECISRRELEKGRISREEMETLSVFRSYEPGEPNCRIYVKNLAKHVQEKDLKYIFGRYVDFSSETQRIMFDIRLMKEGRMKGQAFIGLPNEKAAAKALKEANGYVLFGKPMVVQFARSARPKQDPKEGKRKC
Sequence of UniProt P12081 (P12081 2-509): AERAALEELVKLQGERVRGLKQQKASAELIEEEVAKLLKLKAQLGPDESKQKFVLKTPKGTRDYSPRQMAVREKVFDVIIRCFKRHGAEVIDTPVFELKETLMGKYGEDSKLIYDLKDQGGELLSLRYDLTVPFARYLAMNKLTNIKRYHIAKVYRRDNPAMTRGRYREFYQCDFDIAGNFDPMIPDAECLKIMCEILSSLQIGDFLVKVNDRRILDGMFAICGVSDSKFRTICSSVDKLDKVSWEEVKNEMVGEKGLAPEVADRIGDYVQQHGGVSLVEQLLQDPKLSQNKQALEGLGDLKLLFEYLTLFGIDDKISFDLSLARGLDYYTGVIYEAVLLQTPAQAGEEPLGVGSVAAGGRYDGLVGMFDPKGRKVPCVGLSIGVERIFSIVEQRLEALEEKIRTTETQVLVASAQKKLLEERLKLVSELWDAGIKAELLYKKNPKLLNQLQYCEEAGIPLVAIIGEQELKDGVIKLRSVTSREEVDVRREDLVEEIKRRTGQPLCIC
Sequence of UniProt P05455 (P05455 whole entry): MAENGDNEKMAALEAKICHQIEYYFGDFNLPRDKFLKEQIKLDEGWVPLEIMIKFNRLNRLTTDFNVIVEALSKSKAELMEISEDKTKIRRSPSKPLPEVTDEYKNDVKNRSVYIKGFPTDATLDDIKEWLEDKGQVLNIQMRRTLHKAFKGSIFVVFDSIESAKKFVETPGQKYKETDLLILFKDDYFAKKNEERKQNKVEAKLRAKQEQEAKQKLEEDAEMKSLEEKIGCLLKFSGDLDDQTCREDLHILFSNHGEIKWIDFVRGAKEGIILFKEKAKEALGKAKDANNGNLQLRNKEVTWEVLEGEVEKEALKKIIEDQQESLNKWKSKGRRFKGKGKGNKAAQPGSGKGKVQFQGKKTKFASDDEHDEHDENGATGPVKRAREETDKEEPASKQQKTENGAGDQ
Sequence of UniProt P07199 (P07199 2-599): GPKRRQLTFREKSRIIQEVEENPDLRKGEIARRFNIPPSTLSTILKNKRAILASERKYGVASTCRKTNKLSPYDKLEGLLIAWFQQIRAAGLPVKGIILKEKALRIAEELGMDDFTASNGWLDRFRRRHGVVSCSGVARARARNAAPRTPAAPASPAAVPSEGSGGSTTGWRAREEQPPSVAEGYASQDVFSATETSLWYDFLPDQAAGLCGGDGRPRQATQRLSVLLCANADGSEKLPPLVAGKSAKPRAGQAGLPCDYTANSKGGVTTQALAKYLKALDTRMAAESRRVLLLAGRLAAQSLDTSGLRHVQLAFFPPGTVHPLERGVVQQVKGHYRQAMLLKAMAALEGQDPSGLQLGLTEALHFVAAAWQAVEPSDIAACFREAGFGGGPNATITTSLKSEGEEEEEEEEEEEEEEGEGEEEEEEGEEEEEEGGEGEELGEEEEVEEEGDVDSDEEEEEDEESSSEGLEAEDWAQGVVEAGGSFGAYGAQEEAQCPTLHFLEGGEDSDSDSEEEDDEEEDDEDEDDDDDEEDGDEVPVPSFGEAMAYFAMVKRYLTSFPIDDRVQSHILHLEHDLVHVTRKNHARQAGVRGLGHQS
Sequence of UniProt P11387 (P11387 2-765): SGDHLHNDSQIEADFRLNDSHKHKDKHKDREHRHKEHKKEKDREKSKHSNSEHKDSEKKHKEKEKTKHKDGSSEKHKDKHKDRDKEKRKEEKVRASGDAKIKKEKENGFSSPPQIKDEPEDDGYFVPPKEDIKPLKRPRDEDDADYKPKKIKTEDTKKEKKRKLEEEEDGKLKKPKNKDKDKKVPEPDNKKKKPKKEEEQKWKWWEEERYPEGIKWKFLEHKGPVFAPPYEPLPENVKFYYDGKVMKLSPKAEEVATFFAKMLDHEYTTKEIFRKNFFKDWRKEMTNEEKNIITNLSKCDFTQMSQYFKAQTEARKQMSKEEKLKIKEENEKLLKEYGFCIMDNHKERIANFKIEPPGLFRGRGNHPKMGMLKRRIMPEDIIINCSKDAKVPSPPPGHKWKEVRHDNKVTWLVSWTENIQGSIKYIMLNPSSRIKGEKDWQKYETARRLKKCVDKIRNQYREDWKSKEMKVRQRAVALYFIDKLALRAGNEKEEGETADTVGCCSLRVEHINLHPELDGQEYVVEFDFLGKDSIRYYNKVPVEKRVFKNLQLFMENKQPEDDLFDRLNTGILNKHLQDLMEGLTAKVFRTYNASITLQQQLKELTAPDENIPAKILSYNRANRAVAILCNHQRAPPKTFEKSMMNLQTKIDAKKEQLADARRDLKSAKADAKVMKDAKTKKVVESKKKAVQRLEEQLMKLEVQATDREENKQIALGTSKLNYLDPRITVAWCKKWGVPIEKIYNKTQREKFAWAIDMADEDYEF
Sequence of UniProt P12314 (P12314 16-288 limits assumed): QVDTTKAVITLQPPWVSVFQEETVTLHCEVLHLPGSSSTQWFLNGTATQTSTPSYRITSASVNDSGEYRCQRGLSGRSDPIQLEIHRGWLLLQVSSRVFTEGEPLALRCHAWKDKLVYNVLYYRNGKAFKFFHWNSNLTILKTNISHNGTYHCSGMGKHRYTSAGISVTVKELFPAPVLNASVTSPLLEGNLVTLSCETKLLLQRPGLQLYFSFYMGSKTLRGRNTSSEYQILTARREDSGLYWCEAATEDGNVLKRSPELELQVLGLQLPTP
Sequence of UniProt P08637 (P08637 17-208 limits assumed): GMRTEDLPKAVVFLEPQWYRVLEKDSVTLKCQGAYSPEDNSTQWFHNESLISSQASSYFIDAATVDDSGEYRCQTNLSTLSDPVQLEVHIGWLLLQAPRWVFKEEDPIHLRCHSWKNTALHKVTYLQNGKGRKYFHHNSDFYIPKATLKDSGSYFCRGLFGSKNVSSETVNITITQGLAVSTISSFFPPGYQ

With DH1047 (antibody), the figures for the live virus neutralization IC50 in experiment [1], in experiment [2] and in [3] were 0.028 µg/mL, 0.191 µg/mL and 0.2 µg/mL, respectively.

For DH1042, the negative-log Kd (pKd) in [4] is 9.22; in [5] it was 9.10.

As to DH1042 (antibody), the pKd in [6] was 6.39; in experiment [7], 3.38. Moreover, the AtheNA value came to 4 in experiment [8]; 2 in experiment [9]; 2 in experiment [10]; 2 in [11]; 5 in [12]; 4 in experiment [13]. Besides, the AtheNA value in [14] stood at 26; in experiment [15], 6; in [16], 1; in [17] it was 1; in experiment [18], 0; in experiment [19] it was 3. For the same substance, the AtheNA value worked out at 2 in experiment [20]; 0 in experiment [21]; 12 in [22]; 3 in experiment [23]; 2 in experiment [24]; 3 in experiment [25]. In addition, the AtheNA value in [26] stood at 1; in [27], 1; in experiment [28], 3; in [29] it was 1; in [30], 6; in experiment [31], 2. Further, the AtheNA value in experiment [32] turned out to be 2; in experiment [33], 3; in experiment [34] it was 1; in experiment [35], 2; in [36], 4; in experiment [37] it was 6. In addition, the AtheNA value was 56 in experiment [38] and 9 in experiment [39].

Regarding DH1047, the negative logarithm of the Kd (pKd) in experiment [4] is more than 10.00; in experiment [5], 10.10.

Values taken from patent US20250188154A1.
